T1: EsCas13d, nuclease-dead (Eubacterium siraeum, UniProt B0MS50, R295A;H300A;R849A;H854A)
T1 sequence: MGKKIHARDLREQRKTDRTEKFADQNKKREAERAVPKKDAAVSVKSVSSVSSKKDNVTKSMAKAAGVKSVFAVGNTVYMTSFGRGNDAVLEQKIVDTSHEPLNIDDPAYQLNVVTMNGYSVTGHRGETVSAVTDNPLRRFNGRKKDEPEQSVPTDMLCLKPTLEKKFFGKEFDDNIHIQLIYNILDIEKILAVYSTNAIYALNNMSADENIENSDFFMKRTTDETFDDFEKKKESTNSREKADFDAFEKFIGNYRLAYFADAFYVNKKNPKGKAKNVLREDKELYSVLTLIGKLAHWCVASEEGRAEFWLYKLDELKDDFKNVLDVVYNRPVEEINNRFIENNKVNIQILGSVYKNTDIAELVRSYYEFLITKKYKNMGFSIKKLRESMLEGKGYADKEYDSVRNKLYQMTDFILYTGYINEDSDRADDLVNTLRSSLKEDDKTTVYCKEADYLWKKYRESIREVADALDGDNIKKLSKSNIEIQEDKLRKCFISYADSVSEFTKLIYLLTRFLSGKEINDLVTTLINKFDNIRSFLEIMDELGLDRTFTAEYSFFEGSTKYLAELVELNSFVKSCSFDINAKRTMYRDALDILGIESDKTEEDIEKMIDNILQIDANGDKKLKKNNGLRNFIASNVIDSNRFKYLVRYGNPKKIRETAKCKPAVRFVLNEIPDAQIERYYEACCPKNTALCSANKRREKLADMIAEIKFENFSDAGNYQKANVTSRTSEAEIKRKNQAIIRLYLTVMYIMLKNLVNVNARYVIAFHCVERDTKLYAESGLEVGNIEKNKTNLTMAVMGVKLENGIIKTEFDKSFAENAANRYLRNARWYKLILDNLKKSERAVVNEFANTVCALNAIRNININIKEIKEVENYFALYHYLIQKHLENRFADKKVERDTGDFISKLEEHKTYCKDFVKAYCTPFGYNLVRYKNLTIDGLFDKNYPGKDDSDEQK

B1: target 1 insU 3' of 15,insU 3' of 2 (mixed)
RNA 1: CACCCGUGCAAAAAUGCAGGGGUCUAAAACUGAGCGGAUAACCUCUCUAUGG
RNA 2: GGGAAUGGAUCCACAUCUACGAAUUCGUACCAUAGAGUAGGUUAUCCGCUCUACCGAGAUCGGAAGAGCACACGU
B2: target 1 insC 3' of 20,insG 3' of 8 (mixed)
RNA 1: CACCCGUGCAAAAAUGCAGGGGUCUAAAACUGAGCGGAUAACCUCUCUAUGG
RNA 2: GGGAAUGGAUCCACAUCUACGAAUUCGUACCACUAGAGAGGUUAUGCCGCUCACCGAGAUCGGAAGAGCACACGU
B3: target 1 insA 3' of 15,insU 3' of 12 (mixed)
RNA 1: CACCCGUGCAAAAAUGCAGGGGUCUAAAACUGAGCGGAUAACCUCUCUAUGG
RNA 2: GGGAAUGGAUCCACAUCUACGAAUUCGUACCAUAGAGAAGGUUUAUCCGCUCACCGAGAUCGGAAGAGCACACGU
B4: target 1 insC 3' of 22,insG 3' of 1 (mixed)
RNA 1: CACCCGUGCAAAAAUGCAGGGGUCUAAAACUGAGCGGAUAACCUCUCUAUGG
RNA 2: GGGAAUGGAUCCACAUCUACGAAUUCGUACCCAUAGAGAGGUUAUCCGCUCAGCCGAGAUCGGAAGAGCACACGU
B5: target 1 A1G,U10C (mixed)
RNA 1: CACCCGUGCAAAAAUGCAGGGGUCUAAAACUGAGCGGAUAACCUCUCUAUGG
RNA 2: GGGAAUGGAUCCACAUCUACGAAUUCGUACCAUAGAGAGGUCAUCCGCUCGCCGAGAUCGGAAGAGCACACGU
B6: target 1 insG 3' of 11,insG 3' of 10 (mixed)
RNA 1: CACCCGUGCAAAAAUGCAGGGGUCUAAAACUGAGCGGAUAACCUCUCUAUGG
RNA 2: GGGAAUGGAUCCACAUCUACGAAUUCGUACCAUAGAGAGGUGUGAUCCGCUCACCGAGAUCGGAAGAGCACACGU
B7: target 1 insU 3' of 6,insG 3' of 4 (mixed)
RNA 1: CACCCGUGCAAAAAUGCAGGGGUCUAAAACUGAGCGGAUAACCUCUCUAUGG
RNA 2: GGGAAUGGAUCCACAUCUACGAAUUCGUACCAUAGAGAGGUUAUCCUGCGUCACCGAGAUCGGAAGAGCACACGU
B8: target 1 A1U,U10C (mixed)
RNA 1: CACCCGUGCAAAAAUGCAGGGGUCUAAAACUGAGCGGAUAACCUCUCUAUGG
RNA 2: GGGAAUGGAUCCACAUCUACGAAUUCGUACCAUAGAGAGGUCAUCCGCUCUCCGAGAUCGGAAGAGCACACGU
B9: target 1 U8C,U10A (mixed)
RNA 1: CACCCGUGCAAAAAUGCAGGGGUCUAAAACUGAGCGGAUAACCUCUCUAUGG
RNA 2: GGGAAUGGAUCCACAUCUACGAAUUCGUACCAUAGAGAGGUAACCCGCUCACCGAGAUCGGAAGAGCACACGU
B10: target 1 insC 3' of 15,insA 3' of 5 (mixed)
RNA 1: CACCCGUGCAAAAAUGCAGGGGUCUAAAACUGAGCGGAUAACCUCUCUAUGG
RNA 2: GGGAAUGGAUCCACAUCUACGAAUUCGUACCAUAGAGCAGGUUAUCCGACUCACCGAGAUCGGAAGAGCACACGU
B11: target 1 del9 (mixed)
RNA 1: CACCCGUGCAAAAAUGCAGGGGUCUAAAACUGAGCGGAUAACCUCUCUAUGG
RNA 2: GGGAAUGGAUCCACAUCUACGAAUUCGUACCAUAGAGAGGUUUCCGCUCACCGAGAUCGGAAGAGCACACGU
B12: target 1 insU 3' of 16,insU 3' of 16 (mixed)
RNA 1: CACCCGUGCAAAAAUGCAGGGGUCUAAAACUGAGCGGAUAACCUCUCUAUGG
RNA 2: GGGAAUGGAUCCACAUCUACGAAUUCGUACCAUAGAUUGAGGUUAUCCGCUCACCGAGAUCGGAAGAGCACACGU
B13: target 1 U10C (mixed)
RNA 1: CACCCGUGCAAAAAUGCAGGGGUCUAAAACUGAGCGGAUAACCUCUCUAUGG
RNA 2: GGGAAUGGAUCCACAUCUACGAAUUCGUACCAUAGAGAGGUCAUCCGCUCACCGAGAUCGGAAGAGCACACGU
B14: target 1 G5A,G17U (mixed)
RNA 1: CACCCGUGCAAAAAUGCAGGGGUCUAAAACUGAGCGGAUAACCUCUCUAUGG
RNA 2: GGGAAUGGAUCCACAUCUACGAAUUCGUACCAUAUAGAGGUUAUCCACUCACCGAGAUCGGAAGAGCACACGU
B15: target 1 insG 3' of 22,insA 3' of 2 (mixed)
RNA 1: CACCCGUGCAAAAAUGCAGGGGUCUAAAACUGAGCGGAUAACCUCUCUAUGG
RNA 2: GGGAAUGGAUCCACAUCUACGAAUUCGUACGCAUAGAGAGGUUAUCCGCUCAACCGAGAUCGGAAGAGCACACGU
B16: target 1 insC 3' of 11,insU 3' of 2 (mixed)
RNA 1: CACCCGUGCAAAAAUGCAGGGGUCUAAAACUGAGCGGAUAACCUCUCUAUGG
RNA 2: GGGAAUGGAUCCACAUCUACGAAUUCGUACCAUAGAGAGGUCUAUCCGCUCUACCGAGAUCGGAAGAGCACACGU
B17: target 1 A1C,U10C (mixed)
RNA 1: CACCCGUGCAAAAAUGCAGGGGUCUAAAACUGAGCGGAUAACCUCUCUAUGG
RNA 2: GGGAAUGGAUCCACAUCUACGAAUUCGUACCAUAGAGAGGUCAUCCGCUCCCCGAGAUCGGAAGAGCACACGU
B18: target 1 insG 3' of 22,insC 3' of 1 (mixed)
RNA 1: CACCCGUGCAAAAAUGCAGGGGUCUAAAACUGAGCGGAUAACCUCUCUAUGG
RNA 2: GGGAAUGGAUCCACAUCUACGAAUUCGUACGCAUAGAGAGGUUAUCCGCUCACCCGAGAUCGGAAGAGCACACGU
B19: target 1 U8C,G13U (mixed)
RNA 1: CACCCGUGCAAAAAUGCAGGGGUCUAAAACUGAGCGGAUAACCUCUCUAUGG
RNA 2: GGGAAUGGAUCCACAUCUACGAAUUCGUACCAUAGAGAUGUUACCCGCUCACCGAGAUCGGAAGAGCACACGU
B20: target 1 U3G,A9G (mixed)
RNA 1: CACCCGUGCAAAAAUGCAGGGGUCUAAAACUGAGCGGAUAACCUCUCUAUGG
RNA 2: GGGAAUGGAUCCACAUCUACGAAUUCGUACCAUAGAGAGGUUGUCCGCGCACCGAGAUCGGAAGAGCACACGU
B21: target 1 insU 3' of 9,insG 3' of 1 (mixed)
RNA 1: CACCCGUGCAAAAAUGCAGGGGUCUAAAACUGAGCGGAUAACCUCUCUAUGG
RNA 2: GGGAAUGGAUCCACAUCUACGAAUUCGUACCAUAGAGAGGUUAUUCCGCUCAGCCGAGAUCGGAAGAGCACACGU
B22: target 1 insA 3' of 7,insA 3' of 3 (mixed)
RNA 1: CACCCGUGCAAAAAUGCAGGGGUCUAAAACUGAGCGGAUAACCUCUCUAUGG
RNA 2: GGGAAUGGAUCCACAUCUACGAAUUCGUACCAUAGAGAGGUUAUCACGCUACACCGAGAUCGGAAGAGCACACGU
B23: target 1 G12U,G17C (mixed)
RNA 1: CACCCGUGCAAAAAUGCAGGGGUCUAAAACUGAGCGGAUAACCUCUCUAUGG
RNA 2: GGGAAUGGAUCCACAUCUACGAAUUCGUACCAUACAGAGUUUAUCCGCUCACCGAGAUCGGAAGAGCACACGU
B24: target 1 insG 3' of 19,insG 3' of 7 (mixed)
RNA 1: CACCCGUGCAAAAAUGCAGGGGUCUAAAACUGAGCGGAUAACCUCUCUAUGG
RNA 2: GGGAAUGGAUCCACAUCUACGAAUUCGUACCAUGAGAGAGGUUAUCGCGCUCACCGAGAUCGGAAGAGCACACGU
B25: target 1 insG 3' of 6,insG 3' of 3 (mixed)
RNA 1: CACCCGUGCAAAAAUGCAGGGGUCUAAAACUGAGCGGAUAACCUCUCUAUGG
RNA 2: GGGAAUGGAUCCACAUCUACGAAUUCGUACCAUAGAGAGGUUAUCCGGCUGCACCGAGAUCGGAAGAGCACACGU
B26: target 1 insU 3' of 9,insA 3' of 2 (mixed)
RNA 1: CACCCGUGCAAAAAUGCAGGGGUCUAAAACUGAGCGGAUAACCUCUCUAUGG
RNA 2: GGGAAUGGAUCCACAUCUACGAAUUCGUACCAUAGAGAGGUUAUUCCGCUCAACCGAGAUCGGAAGAGCACACGU
B27: target 1 del13,del22 (mixed)
RNA 1: CACCCGUGCAAAAAUGCAGGGGUCUAAAACUGAGCGGAUAACCUCUCUAUGG
RNA 2: GGGAAUGGAUCCACAUCUACGAAUUCGUACAUAGAGAGUUAUCCGCUCACCGAGAUCGGAAGAGCACACGU
B28: target 1 insC 3' of 22,insC 3' of 1 (mixed)
RNA 1: CACCCGUGCAAAAAUGCAGGGGUCUAAAACUGAGCGGAUAACCUCUCUAUGG
RNA 2: GGGAAUGGAUCCACAUCUACGAAUUCGUACCCAUAGAGAGGUUAUCCGCUCACCCGAGAUCGGAAGAGCACACGU

Each binder was assayed against T1, EsCas13d, nuclease-dead (assay: crRNA (strand 1, pre-loaded); Mg2+; 40 mM Tris-HCl pH 7.5, 150 mM NaCl, 6 mM MgCl2, 1 mM DTT, 0.1% Tween-20, 0.2 mg/ml BSA; 25 C; 10 min per concentration, then washed). Settings: tags: His6-TwinStrep-SUMO cleaved; N-terminal SNAP kept (SNAP-Surface 488); label: 3' end held by stalled T7 RNA polymerase.
With B1 the Kd was 11.2 ± 0.6 nM. B2 gave a Kd of 8.6 ± 0.4 nM. B3 showed a Kd of 4.9 ± 0.4 nM. Work on B4 yielded a Kd of 15.3 ± 1.2 nM. For B5, the Kd was 17.3 ± 0.9 nM. B6 was tested, and the Kd was 30 ± 4 nM. B7 was tested, and the Kd was 7.21 ± 0.28 nM. For B8, the Kd was 20 ± 1.7 nM. In the case of B9, the Kd is reported as 11 ± 0.5 nM. B10 gave a Kd of 6.6 ± 0.5 nM. B11 gave a Kd of 11.5 ± 0.6 nM. Work on B12 yielded a Kd of 38 ± 5 nM. Binder B13 has a Kd of 18 ± 1.1 nM. For B14, the Kd was roughly 100 nM. Work on B15 yielded a Kd of 28.8 ± 2.3 nM. B16 showed a Kd of 73 ± 21 nM. B17 gave a Kd of 22.2 ± 2.9 nM. B18 showed a Kd of 25.6 ± 1.6 nM. Binder B19 has a Kd of 61 ± 11 nM. Binder B20 has a Kd of 8.3 ± 0.8 nM. B21 showed a Kd of 18.9 ± 2.5 nM. B22 gave a Kd of 5.5 ± 0.4 nM. Work on B23 yielded a Kd of roughly 43 nM. B24 was tested, and the Kd was 46 ± 4 nM. Binder B25 has a Kd of 7.3 ± 0.5 nM. B26 gave a Kd of 19.8 ± 1.9 nM. B27 was tested, and the Kd was 30.9 ± 3 nM. With B28 the Kd was 17.2 ± 1 nM.
